# Numbering of substitutions follows the chain as printed. Names may count otherwise.
# B1: PCNA^tri K127G (natural protein, budding yeast)
# chain: MLEAKFEEASLFKRIIDGFKDCVQLVNFQCKEDGIIAQAVDDSRVLLVSLEIGVEAFQEYRCDHPVTLGMDLTSLSKILRCGNNTDTLTLIADNTPDSIILLFEDTKKDRIAEYSLKLMDIDADFLGIEELQYDSTLSLPSSEFSKIVRDLSQLSDSINIMITKETIKFVADGDIGSGSVIIKPFVDMEHPETSIKLEMDQPVDLTFGAKYLLDIIKGSSLSDRVGIRLSSEAPALFQFDLKSGFLQFFLAPKFNDEE
# B2: PCNA FLKI(125-128)AAAA (natural protein, budding yeast)
# chain: B1 chain with F125A, L126A, G127A, I128A
# B3: PCNA K127G, NEM-modified (the PCNA part of SUMO_K164-PCNA^mono) (natural protein, budding yeast)
# chain: B1 chain
# modifications: N-ethylmaleimide on C22 and C81; K164 conjugated to SUMO G98
# Experiments:
# [1] = biological target: BODIPY-FL Srs2(1107-1174) (S. cerevisiae) (UniProt P12954); experiment: fluorescence polarisation
# [2] = biological target: Srs2(1137-1174) (S. cerevisiae) (UniProt P12954); experiment: fluorescence polarisation
# [3] = biological target: the molecule itself; experiment: crystal structure
# [4] = biological target: T1, Srs2(1107-1174) D1151A (S. cerevisiae, UniProt P12954 1107-1174, D1151A, BODIPY-FL conjugated (FP was done with BODIPY-FL conjugated Srs2)); experiment: fluorescence polarisation
# T1 sequence: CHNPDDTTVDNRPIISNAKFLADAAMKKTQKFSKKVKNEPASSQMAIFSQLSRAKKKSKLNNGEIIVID
# [5] = biological target: T2, Srs2(1107-1174) Q1149E (S. cerevisiae, UniProt P12954 1107-1174, Q1149E, BODIPY-FL conjugated (FP was done with BODIPY-FL conjugated Srs2)); experiment: fluorescence polarisation
# T2 sequence: T1 sequence with Q44E, A46D
# [6] = biological target: T3, Srs2(1107-1174) L1156A (S. cerevisiae, UniProt P12954 1107-1174, L1156A, BODIPY-FL conjugated (FP was done with BODIPY-FL conjugated Srs2)); experiment: fluorescence polarisation
# T3 sequence: T1 sequence with A46D, L51A
# [7] = biological target: T4, Srs2(1107-1174) Q1155E (S. cerevisiae, UniProt P12954 1107-1174, Q1155E, BODIPY-FL conjugated (FP was done with BODIPY-FL conjugated Srs2)); experiment: fluorescence polarisation
# T4 sequence: T1 sequence with A46D, Q50E
# [8] = biological target: T5, Srs2(1107-1174) I1152A (S. cerevisiae, UniProt P12954 1107-1174, I1152A, BODIPY-FL conjugated (FP was done with BODIPY-FL conjugated Srs2)); experiment: fluorescence polarisation
# T5 sequence: T1 sequence with A46D, I47A
# [9] = biological target: T6, Srs2(1107-1174) F1153A (S. cerevisiae, UniProt P12954 1107-1174, F1153A, BODIPY-FL conjugated (FP was done with BODIPY-FL conjugated Srs2)); experiment: fluorescence polarisation
# T6 sequence: T1 sequence with A46D, F48A
# [10] = biological target: T7, His6-Eco1 (S. cerevisiae, UniProt P43605 1-281); experiment: pull-down
# T7 sequence (looked up): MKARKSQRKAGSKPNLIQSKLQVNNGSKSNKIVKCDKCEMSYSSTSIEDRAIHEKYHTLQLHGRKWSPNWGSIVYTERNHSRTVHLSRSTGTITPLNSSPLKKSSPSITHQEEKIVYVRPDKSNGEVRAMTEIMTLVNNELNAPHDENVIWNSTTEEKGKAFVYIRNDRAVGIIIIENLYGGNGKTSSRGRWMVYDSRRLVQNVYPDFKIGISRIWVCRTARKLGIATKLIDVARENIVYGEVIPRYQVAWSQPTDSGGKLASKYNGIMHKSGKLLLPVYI
# [11] = biological target: the molecule itself; experiment: crystal structure; remark: listed apart in the source
molecule,measurement,setting,value
SUMO_K164-PCNA^mono K127G (from UniProt P15873 1-258; Q12306 19-98) (complex),Kd,[1],79 nM
"PCNA (yeast proliferating cell nuclear antigen, trimer; variant not named) (from UniProt P15873 1-258) (natural protein)",fold weaker than Srs2(1107-1174),[2],3 fold
same,Kd,[1],169 nM
SUMO_K127-PCNA^mono (PCNA K164R) (from UniProt P15873 1-258; Q12306 19-98) (complex),Kd,[1],14 nM
PCNA^mono (N-ethylmaleimide-treated PCNA) (from UniProt P15873 1-258) (natural protein),fold worse than PCNA^tri,[1],6.5 fold
SUMO_K127-PCNA^tri (PCNA K164R) (from UniProt P15873 1-258; Q12306 19-98) (complex),Kd,[1],25.1 nM
GST-SUMO (from UniProt Q12306 1-101) (natural protein),fold weaker than Srs2(1107-1174),[2],4 fold
same,Kd,[1],877 nM
SUMO_K164-PCNA^tri K127G (from UniProt P15873 1-258; Q12306 19-98) (complex),fold tighter than Srs2(1107-1174),[2],8 fold
same,Kd,[1],26.3 nM
B1,stoichiometry N,[3],3
same,fold defect in Kd against wild-type Srs2(1107-1174),[4],10 fold
same,fold defect in Kd against wild-type Srs2(1107-1174),[5],3 fold
same,fold reduced affinity against wild-type Srs2(1107-1174),[6],73 fold
same,fold reduced affinity against wild-type Srs2(1107-1174),[7],31 fold
same,fold defect in Kd against wild-type Srs2(1107-1174),[8],60 fold
same,fold reduced affinity against wild-type Srs2(1107-1174),[9],9 fold
B2,binding result,[10],binds
B3,binding result,[11],binds
